Among the data in paper doi:10.64898/2025.12.11.693717 are Draxin mean fluorescence on DCC+ cells values, retold here.

For assay [1], the target named is DCC I372R mutant, overexpressed in Cos7 cells (UniProt P70211). The assay can be described thus: immunostaining of cells or tissue.
The target in assay [2] is Deleted in Colorectal Cancer (DCC), wild type, overexpressed in Cos7 cells (UniProt P70211). The assay can be described thus: immunostaining of cells or tissue.

As for recombinant Draxin (ligand), the results for the Draxin mean fluorescence on DCC+ cells in assay [1] and in assay [2] were 0.72 and 0.95, respectively.
